Columns and labels:
P2-AA-1HGe-A = target: T1, P2-AA-1HGe-A; assay: two-hybrid library CCmax; conditions: mean of both orientations;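 further: natural log of median RNA to DNA barcode read ratio; higher means stronger binding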
T1 chain: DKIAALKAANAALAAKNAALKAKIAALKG

P2-AA = target: T2, P2-AA; assay: two-hybrid library CCmax; conditions: mean of both orientations;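 further: natural log of median RNA to DNA barcode read ratio; higher means stronger binding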
T2 chain: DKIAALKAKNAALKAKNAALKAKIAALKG

P2-AA-1HGe-M = target: T3, P2-AA-1HGe-M; assay: two-hybrid library CCmax; conditions: mean of both orientations;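 further: natural log of median RNA to DNA barcode read ratio; higher means stronger binding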
T3 chain: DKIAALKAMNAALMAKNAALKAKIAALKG

P2-AA-1HGe-Q = target: T4, P2-AA-1HGe-Q; assay: two-hybrid library CCmax; conditions: mean of both orientations;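 further: natural log of median RNA to DNA barcode read ratio; higher means stronger binding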
T4 chain: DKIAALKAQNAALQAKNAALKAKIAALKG

P2-AA-1HGe-D = target: T5, P2-AA-1HGe-D; assay: two-hybrid library CCmax; conditions: mean of both orientations
T5 chain: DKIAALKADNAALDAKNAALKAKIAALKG

P2-AA-1HGe-T = target: T6, P2-AA-1HGe-T; assay: two-hybrid library CCmax; conditions: mean of both orientations
T6 chain: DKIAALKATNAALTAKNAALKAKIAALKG

P2-AA-1HGe-R = target: T7, P2-AA-1HGe-R; assay: two-hybrid library CCmax; conditions: mean of both orientations
T7 chain: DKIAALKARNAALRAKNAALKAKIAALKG

4H491-bN = target: T8, 4H491-bN; assay: two-hybrid library CCNG1
T8 chain: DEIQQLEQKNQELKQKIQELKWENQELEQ

4H48-bN = target: T9, 4H48-bN; assay: two-hybrid library CCNG1
T9 chain: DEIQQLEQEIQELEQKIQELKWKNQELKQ

4H2696-bN = target: T10, 4H2696-bN; assay: two-hybrid library CCNG1
T10 chain: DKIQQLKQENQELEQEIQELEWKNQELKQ

4H2883-bN = target: T11, 4H2883-bN; assay: two-hybrid library CCNG1
T11 chain: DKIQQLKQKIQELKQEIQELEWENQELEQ

4H2944-bN = target: T12, 4H2944-bN; assay: two-hybrid library CCNG1
T12 chain: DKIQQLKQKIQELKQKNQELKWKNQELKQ

4H2937-bN = target: T13, 4H2937-bN; assay: two-hybrid library CCNG1
T13 chain: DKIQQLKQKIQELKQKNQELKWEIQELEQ

4H342-bN = target: T14, 4H342-bN; assay: two-hybrid library CCNG1
T14 chain: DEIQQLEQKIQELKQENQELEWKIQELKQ

4H1802-AA = target: T15, 4H1802-AA; assay: two-hybrid library CCmax; conditions: mean of both orientations
T15 chain: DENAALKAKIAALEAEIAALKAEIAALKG

GCN2_T = assay: two-hybrid library CCmax
4H140-AA = target: T16, 4H140-AA; assay: two-hybrid library CCmax; conditions: mean of both orientations
T16 chain: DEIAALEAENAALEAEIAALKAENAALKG

4H486-AA = target: T17, 4H486-AA; assay: two-hybrid library CCmax; conditions: mean of both orientations
T17 chain: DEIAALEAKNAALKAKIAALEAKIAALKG

4H2898-AA = target: T18, 4H2898-AA; assay: two-hybrid library CCmax; conditions: mean of both orientations
T18 chain: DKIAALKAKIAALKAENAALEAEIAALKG

4H465-AA = target: T19, 4H465-AA; assay: two-hybrid library CCmax; conditions: mean of both orientations
T19 chain: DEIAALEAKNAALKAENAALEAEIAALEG

4H355-AA = target: T20, 4H355-AA; assay: two-hybrid library CCmax; conditions: mean of both orientations
T20 chain: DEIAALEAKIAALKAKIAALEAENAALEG

4H_APH = target: T21, 4H_APH; assay: two-hybrid library CCmax; conditions: mean of both orientations
T21 chain: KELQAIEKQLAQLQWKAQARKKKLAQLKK

4H3705-AA = target: T22, 4H3705-AA; assay: two-hybrid library CCmax; conditions: mean of both orientations
T22 chain: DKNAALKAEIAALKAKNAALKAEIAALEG

4H_GCN4 = assay: two-hybrid library CCmax
4H_GCN4, sequence (chain, as listed by the source): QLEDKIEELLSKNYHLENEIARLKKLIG

4H3020-AA = target: T23, 4H3020-AA; assay: two-hybrid library CCmax; conditions: mean of both orientations
T23 chain: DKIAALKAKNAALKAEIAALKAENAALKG

4H3651-AA = target: T24, 4H3651-AA; assay: two-hybrid library CCmax; conditions: mean of both orientations
T24 chain: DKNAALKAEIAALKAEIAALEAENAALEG

4H1136-AA = target: T25, 4H1136-AA; assay: two-hybrid library CCmax
T25 chain: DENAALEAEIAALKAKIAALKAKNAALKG

4H3365-AA = target: T26, 4H3365-AA; assay: two-hybrid library CCmax; conditions: mean of both orientations
T26 chain: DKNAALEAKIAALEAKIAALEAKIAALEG

4H2721-AA = target: T27, 4H2721-AA; assay: two-hybrid library CCmax; conditions: mean of both orientations
T27 chain: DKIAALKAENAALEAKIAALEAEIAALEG

4H_BCR = target: T28, 4H_BCR; assay: two-hybrid library CCmax; conditions: mean of both orientations
T28 chain: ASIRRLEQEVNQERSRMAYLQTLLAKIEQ

4H535-AA = target: T29, 4H535-AA; assay: two-hybrid library CCmax; conditions: mean of both orientations
T29 chain: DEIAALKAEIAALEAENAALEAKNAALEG

4H3782-AA = target: T30, 4H3782-AA; assay: two-hybrid library CCmax; conditions: mean of both orientations
T30 chain: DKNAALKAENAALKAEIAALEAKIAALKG

4H2750-AA = target: T31, 4H2750-AA; assay: two-hybrid library CCmax
T31 chain: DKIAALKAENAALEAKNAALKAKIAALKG

4H2600-AA = target: T32, 4H2600-AA; assay: two-hybrid library CCmax; conditions: mean of both orientations
T32 chain: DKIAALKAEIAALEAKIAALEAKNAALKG

4H895-AA = target: T33, 4H895-AA; assay: two-hybrid library CCmax; conditions: mean of both orientations
T33 chain: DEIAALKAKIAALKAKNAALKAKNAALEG

4H58-AA = target: T34, 4H58-AA; assay: two-hybrid library CCmax; conditions: mean of both orientations
T34 chain: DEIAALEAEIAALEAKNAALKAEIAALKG

4H1257-AA = target: T35, 4H1257-AA; assay: two-hybrid library CCmax; conditions: mean of both orientations
T35 chain: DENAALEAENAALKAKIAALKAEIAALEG

**Q.** Which results are given for DEIAALEAWNAALWAENAALEAEIAALEG [P1-AA-1HGe-W]?
**A.** interaction score (P2-AA-1HGe-A): 1.9; interaction score (P2-AA): 1.7; interaction score (P2-AA-1HGe-M): 2.21; interaction score (P2-AA-1HGe-Q): 1.87; interaction score (P2-AA-1HGe-D): 1.27; interaction score (P2-AA-1HGe-T): 2.15; interaction score (P2-AA-1HGe-R): 1.34

**Q.** How did the interaction score (4H491-bN) turn out when DKIQQLKQENQELEQEIQELEWKNQELKQ [4H2696-bN] was run?
**A.** The interaction score was 0.0322.

**Q.** What about the interaction score (4H48-bN) of the same binder?
**A.** Its interaction score is -1.05.

**Q.** And the interaction score (4H2696-bN)?
**A.** The interaction score was -0.134.

**Q.** And the interaction score (4H2883-bN)?
**A.** Its interaction score is 1.32.

**Q.** What about the interaction score (4H2944-bN) of the same binder?
**A.** Its interaction score is -0.274.

**Q.** And the interaction score (4H2937-bN)?
**A.** Its interaction score is 0.131.

**Q.** What about the interaction score (4H342-bN) of the same binder?
**A.** The interaction score was -0.885.

**Q.** Which interaction score (P2-AA-1HGe-A) does the source give for DEIAALEAYNAALYAENAALEAEIAALEG [P1-AA-1HGe-Y] here?
**A.** The interaction score was 1.65.

**Q.** What about the interaction score (P2-AA) of the same binder?
**A.** The interaction score was 1.87.

**Q.** And the interaction score (P2-AA-1HGe-M)?
**A.** The interaction score was 1.67.

**Q.** What about the interaction score (P2-AA-1HGe-Q) of the same binder?
**A.** The interaction score was 1.96.

**Q.** What about the interaction score (P2-AA-1HGe-D) of the same binder?
**A.** The interaction score was 1.57.

**Q.** What about the interaction score (P2-AA-1HGe-T) of the same binder?
**A.** Its interaction score is 2.08.

**Q.** And the interaction score (P2-AA-1HGe-R)?
**A.** Its interaction score is 2.01.

**Q.** For DENAALEAEIAALKAKIAALKAKNAALKG [4H1136-AA], which interaction score (4H1802-AA) is on record?
**A.** The interaction score was -1.42.

**Q.** And the interaction score (GCN2_T)?
**A.** Its interaction score is -1.68.

**Q.** What about the interaction score (4H140-AA) of the same binder?
**A.** Its interaction score is -1.41.

**Q.** And the interaction score (4H486-AA)?
**A.** Its interaction score is -0.319.

**Q.** What about the interaction score (4H2898-AA) of the same binder?
**A.** Its interaction score is -0.29.

**Q.** What about the interaction score (4H465-AA) of the same binder?
**A.** Its interaction score is -1.44.

**Q.** What about the interaction score (4H355-AA) of the same binder?
**A.** Its interaction score is 0.718.

**Q.** And the interaction score (4H_APH)?
**A.** Its interaction score is -1.64.

**Q.** And the interaction score (4H3705-AA)?
**A.** The interaction score was -1.5.

**Q.** What about the interaction score (4H_GCN4) of the same binder?
**A.** The interaction score was -1.83.

**Q.** What about the interaction score (4H3020-AA) of the same binder?
**A.** The interaction score was -1.2.

**Q.** What about the interaction score (4H3651-AA) of the same binder?
**A.** The interaction score was 2.2.

**Q.** And the interaction score (4H1136-AA)?
**A.** Its interaction score is -0.12.

**Q.** And the interaction score (4H3365-AA)?
**A.** The interaction score was -1.36.

**Q.** What about the interaction score (4H2721-AA) of the same binder?
**A.** The interaction score was -1.15.

**Q.** And the interaction score (4H_BCR)?
**A.** The interaction score was -1.73.

**Q.** And the interaction score (4H535-AA)?
**A.** The interaction score was 1.79.

**Q.** What about the interaction score (4H3782-AA) of the same binder?
**A.** Its interaction score is -0.406.

**Q.** What about the interaction score (4H2750-AA) of the same binder?
**A.** Its interaction score is -1.46.

**Q.** And the interaction score (4H2600-AA)?
**A.** The interaction score was 0.398.

**Q.** What about the interaction score (4H895-AA) of the same binder?
**A.** The interaction score was -1.31.

**Q.** What about the interaction score (4H58-AA) of the same binder?
**A.** Its interaction score is -0.193.

**Q.** What about the interaction score (4H1257-AA) of the same binder?
**A.** Its interaction score is 0.673.

Reference: paper PMC10397247
